Columns and labels:
[1] = target: mouse CD3εγ-chains (mouse (endogenous in C57BL/6 spleen T cells)) (UniProt P22646)
[2] = target: mouse CD3εγ-chains (mouse (endogenous in C57BL/6 spleen T cells)) (UniProt P22646); experiment: flow cytometry on cells; fixed CD8+ T cells (1 x 10^6/mL) incubated with or without ArtinM (25 µg/mL) for 40 min at 4 °C, then with 145-2C11-PE or 17A2-FITC (10 µg/mL) for 40 min at 4 °C; percentage of cells labelled with anti-CD3 antibody

UniProt P22646, sequence (P22646 22-189, chain 1 of 2): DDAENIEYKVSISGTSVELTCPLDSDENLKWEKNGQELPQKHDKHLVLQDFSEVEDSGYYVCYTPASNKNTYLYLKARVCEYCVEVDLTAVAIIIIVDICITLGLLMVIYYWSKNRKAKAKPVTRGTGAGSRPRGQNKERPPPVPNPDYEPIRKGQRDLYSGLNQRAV
UniProt P22646, sequence (P11942 23-182, chain 2 of 2, further chain): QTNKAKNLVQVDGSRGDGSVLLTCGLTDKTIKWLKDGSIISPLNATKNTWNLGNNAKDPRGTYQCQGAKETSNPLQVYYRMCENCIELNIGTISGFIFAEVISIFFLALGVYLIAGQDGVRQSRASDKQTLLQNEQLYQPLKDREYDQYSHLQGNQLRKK

“ArtinM, D-mannose-binding lectin from Artocarpus heterophyllus (natural protein)” gave an inhibition of the ArtinM-induced (1.25 µg/mL, 48 h) IL-2 release by CD8+ T cells after treatment with the anti-CD3εγ-chains antibody 17A2 (8 µg/mL), against an IgG isotype control; ELISA [1] of 70% and a fold decrease in the frequency of CD8+ T cells labelled by the anti-CD3εγ antibody 17A2 after pre-incubation with ArtinM [2] of 3.5 fold.

From publication PMC5535893
